28 sequences from the supplement of paper PMC9170038 can be followed below.

The subject of this series is MS2 coat protein. Kind of series: apparent KD of MS2 coat protein; designed switch direction (-1 OFF switch, 1 ON switch): 1; higher = weaker reporter binding. In outline: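 The buffer was Tris-HCl pH 7.5 with KCl, MgCl2, BSA, DTT, tRNA and Tween-20. In it, SNAP-549-labelled MS2 coat protein was titrated in doubling steps from 0.7 or 1.5 nM to 3 µM over chip-bound RNA switches transcribed by stalled E. coli RNA polymerase on Illumina chips. Apparent KD is the per-design median over clusters of curve fits to normalised fluorescence.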

Setting [1] is: input ligand: microRNA oligo, concentration not stated.
The mark [2] stands for this setting: Eterna round: R95, input ligand: FMN 200 uM.
The mark [3] stands for this setting: Eterna round: R95, input ligand: microRNA oligo, concentration not stated.
The mark [4] stands for this setting: Eterna round: R95, input ligand: none.

With “CUGCUCGGGUGAGGAUAUGCCGCCGUUUCGGCUGCAGAAGGUGCUACGUUACAUGAGGAUCACCCAUGUCUCUGUUGUUUCGUU [salish99_SSNG1_r04_965] (Eterna round: R96, puzzle: Same State NG 1)”, the “apparent KD of MS2 coat protein” value (input ligand: FMN 200 uM) is 0.0721 µM, the “apparent KD of MS2 coat protein” value under setting [1] was 0.0428 µM and the “apparent KD of MS2 coat protein” value (input ligand: none) was 0.0622 µM.
In the case of “CUGCUCGUGUGAGGAUAUGCCGCCGUUUCGGCUGCAGAAGGUGCUACGUUACAUGAGGAUCACCCAUGUCUCUGUUGUUUCGUC [salish99_SSNG1_r04_946] (Eterna round: R96, puzzle: Same State NG 1)”, the “apparent KD of MS2 coat protein” value runs as follows: (input ligand: FMN 200 uM) 0.0256 µM; under setting [1], 0.0187 µM; (input ligand: none) 0.0313 µM.
“CUGUGUUGCGGGCAGGAUAUGUACUUGAGUACAUGAGGAUCACCCAUGUGCGGGUGUUUCACCCGACAGAAGGGCCAAUCGCGAC [JL-ss2-3.23 ViennaUCT mod] (puzzle: Same State 2)”: the “apparent KD of MS2 coat protein” value was 0.0688 µM under setting [2], 0.311 µM under setting [3] and 1.52 µM under setting [4].
Consider “CUGUGUUGCGGGCAGGAUAUGUAUUGGAAUACAUGAGGAUCACCCAUGUGCGGGUGUUUCACCCGACAGAAGGGCCAAUCGCGAC [JL-ss2-3.21 ViennaUCT mod] (puzzle: Same State 2)”, for which, under setting [3], the “apparent KD of MS2 coat protein” value was found to be 0.266 µM.
As to “CUUUAUCACUAUACAUGAGGAUCACCCAUGUUAUCAUCAUGAGAGGAUAUCGUAAUAGGAUUUUUCGAGAAGGCUCUAAAGUAU [JR_SSNG3_Sub078] (Eterna round: R96, puzzle: Same State NG 3)”, the “apparent KD of MS2 coat protein” value stood at 0.0521 µM (input ligand: FMN 200 uM), 0.167 µM under setting [1] and 0.142 µM (input ligand: none).
As for “GAAAUAAUGUAAGGAUAUACAUGAGGAUUUCUCGUAGAAGGUACAAGACAUGAGGAUCACCCAUGUGUCGCUCCGUAGAGCGUA [Mat - Same State NG 1 - JL mod - D14] (Eterna round: R96, puzzle: Same State NG 1)”, the “apparent KD of MS2 coat protein” value under setting [1] was determined as 0.125 µM.
“GAAUAGUUGAGAGGAUAUCUAUUAUUGUAGGAUAGAGAAGGUUUUAACAUGAGGAUCACCCAUGUAGGACUAUAUAUGUGAAUA [Parity 99 - Jieux - Same State NG 1] (Eterna round: R96, puzzle: Same State NG 1)”: the “apparent KD of MS2 coat protein” value amounted to 0.0142 µM (input ligand: FMN 200 uM), 0.0125 µM under setting [1] and 0.0153 µM (input ligand: none).
With “GACAAGCAGGCUUUUUUCUCGUAGUGUAAACAUGAGGAUCACCCAUGUGCCCGCCCUGGAUCUUUGGAUCGCAGGAA [Onlari] (puzzle: Sensor for hsa-mir-208a)”, the “apparent KD of MS2 coat protein” value under setting [2] was 0.0364 µM, the “apparent KD of MS2 coat protein” value under setting [3] came to 0.0145 µM and the “apparent KD of MS2 coat protein” value under setting [4] worked out at 0.0355 µM.
Turning to “GACAAUCUAUCUGAGGAUAUCAUGAAUAAAACAUGAGGAUCACCCAUGUGCAGGAUAACUGCAAAUGAGAAGGCAGAUAGAUUGG [Mat - Same State 2 - Mod - D9] (puzzle: Same State 2)”, the “apparent KD of MS2 coat protein” value runs as follows: under setting [2], 0.00921 µM; under setting [3], 0.02 µM; under setting [4], 0.018 µM.
The matching figures for “GACAAUCUAUCUGAGGAUAUCAUGAGAAGAACAUGAGGAUCACCCAUGUGCAGGAAAACUGCAUAUGAGAAGGCAGAUAGAUUGG [Mat - Same State 2 - Mod - D17] (puzzle: Same State 2)”: 0.0478 µM, 0.607 µM and 3.57 µM.
For “GACCGCGAGGAAGGAUAUGGAGCCUUAAAGGCUCCAGAAGGUCCAUAAAGGACAUGAGGAUCACCCAUGUGGUGAGAAGCGGUC [Mat - Same State NG 1 - JL mod - D75] (Eterna round: R96, puzzle: Same State NG 1)”, under setting [1], the “apparent KD of MS2 coat protein” value was 0.711 µM.
With “GACCGCGAGGAAGGAUAUGGAGCCUUAUUGGCUCCAGAAGGUCCAUAAGGGACAUGAGGAUCACCCAUGUGGGUUGAAGCGGUC [Fiskers NG1ss - 35] (Eterna round: R96, puzzle: Same State NG 1)”, the “apparent KD of MS2 coat protein” value by setting is: (input ligand: FMN 200 uM) 0.0246 µM; under setting [1], 0.14 µM; (input ligand: none) 0.16 µM.
As to “GAGAGACAUGAGGAUCACCCAUGUAGAAUAGAACAAGGAUAUGUGGAAGGCGGAGGAGAGACAGAAGGUGUAGGAG [JR_SS1_Sub055] (puzzle: Same State 1)”, the “apparent KD of MS2 coat protein” value under setting [3] worked out at 0.064 µM.
As to “GAGAGAGGGUGAGGAUAUUCGGUGAUAAUGAUGGGAGAAGGCACAGACAUGAGGAUCACCCAUGUGGGAAUAAUCCAGAGAGAG [Parity 12 - Jieux - Same State NG 1] (Eterna round: R96, puzzle: Same State NG 1)”, the “apparent KD of MS2 coat protein” value amounted to 0.138 µM (input ligand: FMN 200 uM), 0.083 µM under setting [1] and 0.181 µM (input ligand: none).
“GAGGAACAUGAGGAUCACCCAUGUGGGAUGGGACAAGGAUAUGUAGGUAGAGGAGAAGAGACAGAAGGUGUAGGAG [JR_SS1_Sub052] (puzzle: Same State 1)”: the “apparent KD of MS2 coat protein” value runs as follows: under setting [2], 0.349 µM; under setting [3], 0.232 µM; under setting [4], 0.66 µM.
The matching figures for “GAGGAUGAUUUACAGGAUAUAUAGCAGAUGACAUGAGGAUCACCCAUGUAAGAGAAAGGAGGGAGAUAGAAGGGUAUGGGAGGUG [JR_SS2_Sub038] (puzzle: Same State 2)”: 0.0293 µM, 0.0354 µM and 0.0435 µM.
For “GAGGAUGAUUUACAGGAUAUAUAGGAGAUGACAUGAGGAUCACCCAUGUAGGAGAUAGGAGUGAGAUAGAAGGGUAAGUGAUGUG [JR_SS2_Sub43] (puzzle: Same State 2)”, the “apparent KD of MS2 coat protein” value stood at 0.0589 µM under setting [2], 0.122 µM under setting [3] and 0.114 µM under setting [4].
In the case of “GAGGGAUGAGCGUAGGAUAUAGGAGAAGUGACAUGAGGAUCACCCAUGUGGUAUGAGGGAUGAUUCUAGAAGGACGCGGUAGAAG [JR_SS2_Sub063] (puzzle: Same State 2)”, the “apparent KD of MS2 coat protein” value runs as follows: under setting [2], 0.149 µM; under setting [3], 0.399 µM; under setting [4], 0.373 µM.
As to “GAGGGCGAAAGCGACAUGAGGAUCACCCAUGUCCUCGGAGGGCAGGAUAUCCGGCAGUAGCCGAAGGAGAAGGGUCGAAAAGAA [AK SSNG3-V2-35.1] (Eterna round: R96, puzzle: Same State NG 3)”, the “apparent KD of MS2 coat protein” value (input ligand: FMN 200 uM) was 0.0534 µM, the “apparent KD of MS2 coat protein” value under setting [1] was 0.0357 µM and the “apparent KD of MS2 coat protein” value (input ligand: none) is 0.0536 µM.
With “GAGUAGUCAAAAGGAUAUUGAUUAUUGUAGGAUCAAGAAGGUUUUAACAUGAGGAUCACCCAUGUAGGACUAUUCCUGUGUAUC [Parity 91 - Jieux - Same State NG 1] (Eterna round: R96, puzzle: Same State NG 1)”, the “apparent KD of MS2 coat protein” value under setting [1] is 0.0108 µM.
Turning to “GAGUAGUUGAAAGGAUAUUGAUUAUUGUAGGAUCAAGAAGGUUUUAACAUGAGGAUCACCCAUGUAGGACUAUAUAUGUGAAUA [Parity 95 - Jieux - Same State NG 1] (Eterna round: R96, puzzle: Same State NG 1)”, the “apparent KD of MS2 coat protein” value by setting is: (input ligand: FMN 200 uM) 0.0122 µM; under setting [1], 0.0123 µM; (input ligand: none) 0.016 µM.
Turning to “GAGUAGUUGAAAGGAUAUUGAUUGUUGUAGGAUCAAGAAGGUUCUAACAUGAGGAUCACCCAUGUAGGACUAUUCCUGUGUAUC [Parity 86 - Jieux - Same State NG 1] (Eterna round: R96, puzzle: Same State NG 1)”, the “apparent KD of MS2 coat protein” value (input ligand: FMN 200 uM) came out at 0.00827 µM, the “apparent KD of MS2 coat protein” value under setting [1] is 0.00809 µM and the “apparent KD of MS2 coat protein” value (input ligand: none) came out at 0.0119 µM.
For “GAGUCAGAUCGAGGAUAUUUGUUAUGACGAUCCCACAUGAGGAUCACCCAUGUCCACGAUCCUCCAAAGAAGGUGAGGCUGGCG [Eternabot solution 32] (Eterna round: R96, puzzle: Same State NG 2)” the same measures were 0.202 µM, 0.0396 µM and 0.0882 µM.
Take “GAGUGACAUGAGGAUCACCCAUGUAGAAUAGAACAAGGAUAUGUGGAAGGCGGAGGAGAGACAGAAGGUGUUGGAG [JR_SS1_Sub056] (puzzle: Same State 1)”: the “apparent KD of MS2 coat protein” value under setting [2] was 0.0479 µM, the “apparent KD of MS2 coat protein” value under setting [3] is 0.0512 µM and the “apparent KD of MS2 coat protein” value under setting [4] was determined as 0.088 µM.
As to “GAGUGGAGGUAAGGAUAUAUAAUGAUAAUCACAGUAGAAGGUACUAACAUGAGGAUCACCCAUGUAGGACUAUACCAGAGAGGG [Parity 45 - Jieux - Same State NG 1] (Eterna round: R96, puzzle: Same State NG 1)”, the “apparent KD of MS2 coat protein” value under setting [1] stood at 0.0119 µM.
In the case of “GAGUGGCAGUUAGGAUAUAUAGUGAUAAUCACAAUAGAAGGAACAGACAUGAGGAUCACCCAUGUAGGACUAAUCCAGAGAGAG [Parity 37 - Jieux - Same State NG 1] (Eterna round: R96, puzzle: Same State NG 1)”, the “apparent KD of MS2 coat protein” value is 0.0192 µM (input ligand: FMN 200 uM), 0.0164 µM under setting [1] and 0.0234 µM (input ligand: none).
The matching figures for “GAGUGGUGGAGAGGAUAUACAUUGUUAUUCACUGUAGAAGGUUCUAACAUGAGGAUCACCCAUGUAGGACUAUUCCUGAGAGUU [Parity 55 - Jieux - Same State NG 1] (Eterna round: R96, puzzle: Same State NG 1)”: 0.0131 µM, 0.0109 µM and 0.0142 µM.
For “GAGUUACAUGAGGAUCACCCAUGUUGUUUUGGAUAAGGAUAUAUGGUAGGAAGAGGAAUGAUAGAAGGUAUUAGGG [JR_SS1_Sub063] (Eterna round: R96, puzzle: Same State 1)” the same measures were 0.0416 µM, 0.0268 µM and 0.0353 µM.
